Test systems include XTN TALEN 1 left monomer; XTN TALEN 3 left monomer; XTN TALEN 2 left monomer.
What all share (experiment): cell_activity
Common to all, as to settings: Cel-1 assay; activity of the TALEN pair

For data set [1], the system named is XTN TALEN 1 right monomer.
Data set [2] has as its system XTN TALEN 2 right monomer.
Data set [3] deals with XTN TALEN 3 right monomer.

In data set [1], “TATGCGGACCTTTATCTATGGCTGGAATTTCCTAAGTGCAGGGAGCCACA (double strand) [TALEN 1 target, right half-site]” came in with an activity of 5%. For “TGCAGTATGCGGACCTTTATCTATGGCTGGAATTTCCTAAGTGCAGGGA (double strand) [TALEN 2 target, right half-site]”, the activity in data set [2] worked out at 9%. In data set [3], “TCTGCCAACCTCACATACAGTATGTGGTTTAGTCATTGAGCAAATGCA (double strand) [TALEN 3 target, right half-site]” had an activity of 3%. Sequence “TATGCGGACCTTTATCTATGGCTGGAATTTCCTAAGTGCAGGGAGCCACA (double strand) [TALEN 1 target, left half-site]” displayed an activity with XTN TALEN 1 left monomer of 5%. “TCTGCCAACCTCACATACAGTATGTGGTTTAGTCATTGAGCAAATGCA (double strand) [TALEN 3 target, left half-site]” had an activity in the data set on XTN TALEN 3 left monomer of 3%. “TGCAGTATGCGGACCTTTATCTATGGCTGGAATTTCCTAAGTGCAGGGA (double strand) [TALEN 2 target, left half-site]” yielded an activity with XTN TALEN 2 left monomer of 9%.

The record behind these values is US20190037818.
